# Measurements: patent US20090156421A1 (published 2009)
# Like-named read-outs stand apart in the source and are kept apart here.
# B1: Cy5-IL-13Rα1 (Cy5 labeled IL-13Rα1) (receptor, human, UniProt P78552 22-343, looked up)
# chain: GGGGAAPTETQPPVTNLSVSVENLCTVIWTWNPPEGASSNCSLWYFSHFGDKQDKKIAPETRRSIEVPLNERICLQVGSQCSTNESEKPSILVEKCISPPEGDPESAVTELQCIWHNLSYMKCSWLPGRNTSPDTNYTLYYWHRSLEKIHQCENIFREGQYFGCSFDLTKVKDSSFEQHSVQIMVKDNAGKIKPSFNIVPLTSRVKPDPPHIKNLSFHNDDLYVQWENPQNFISRCLFYEVEVNNSQTETHNVFYVQEAKCENPEFERNVENTSCFMVPGVLPDTLNTVRIRVKTNKLCYEDDKLWSNWSQEMSIGKKRNST
# modifications: Cy5 label, directly labeled; site not stated
# notes: extracellular domain; also called IL-13R-Cys5; Cy5-IL-13RI1
# B2: IL-13Rα1 monomer (IL-13Rα1 extracellular domain) (receptor, human, UniProt P78552 22-343, looked up)
# chain: B1 chain
# notes: extracellular domain; Expressed and purified as in Yang et al. 2006; also called IL-13RI1; IL-13R1
# How the values were obtained:
# [1] = biological target: IL-13R110Q/IL-13Rα1 binary complex (human) (UniProt P35225); assay: SPR, IL-13Rα1 immobilised, 8 nM IL-13R110Q in buffer, IL-4R injected, 1:1 model
# Sequence of IL-13R110Q/IL-13Rα1 binary complex (human) (P35225 35-146, one chain of several): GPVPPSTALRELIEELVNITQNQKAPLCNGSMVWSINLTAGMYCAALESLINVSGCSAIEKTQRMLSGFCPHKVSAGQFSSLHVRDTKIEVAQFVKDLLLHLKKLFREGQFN
# [2] = biological target: IL-13R110Q/IL-13Rα1 binary complex (human) (UniProt P35225); assay: as above; remark: listed apart in the source
# [3] = biological target: IL-13Rα1 monomer (IL-13Rα1 extracellular domain) (human) (UniProt P78552); assay: SPR, IL-13Rα1 immobilised
# [4] = biological target: IL-13Rα1 monomer (IL-13Rα1 extracellular domain) (human) (UniProt P78552); assay: SPR, IL-13Rα1 immobilised, 1:1 model
# [5] = biological target: IL-13Rα1 + IL-4R co-immobilised on one sensor chip surface (high affinity receptor) (human) (UniProt P78552); assay: SPR, IL-13Rα1 and IL-4R co-immobilised, against IL-13Rα1 alone
# Sequence of IL-13Rα1 + IL-4R co-immobilised on one sensor chip surface (high affinity receptor) (human) (P24394 26-232): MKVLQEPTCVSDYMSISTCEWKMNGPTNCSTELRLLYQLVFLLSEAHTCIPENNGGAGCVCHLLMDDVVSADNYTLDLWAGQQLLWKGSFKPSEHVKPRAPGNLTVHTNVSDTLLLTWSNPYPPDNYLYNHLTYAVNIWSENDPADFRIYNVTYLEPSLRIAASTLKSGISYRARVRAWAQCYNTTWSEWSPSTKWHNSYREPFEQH
# [6] = biological target: Cy5-IL-13Rα1 (Cy5 labeled IL-13Rα1) (human) (UniProt P78552); assay: TR-FRET assay 1, competition with 10 nM Eu-IL-13 for 10 nM Cy5-IL-13Rα1
# [7] = biological target: Cy5-IL-13Rα1 plus IL-4R (500 nM) in solution (human) (UniProt P78552); assay: TR-FRET assay 1, competition with 10 nM Eu-IL-13, 10 nM Cy5-IL-13Rα1, 500 nM IL-4R
# Sequence of Cy5-IL-13Rα1 plus IL-4R (500 nM) in solution (human) (P24394 26-232): as above
# [8] = biological target: Cy5-IL-13Rα1 (Cy5 labeled IL-13Rα1) (human) (UniProt P78552); assay: TR-FRET assay 1, competition with Eu-IL-13 for Cy5-IL-13Rα1, Kd calculated from IC50
# [9] = biological target: Cy5-IL-13Rα1 plus IL-4R (500 nM) in solution (human) (UniProt P78552); assay: TR-FRET assay 1, competition with Eu-IL-13, with 500 nM IL-4R, Kd calculated from IC50
# [10] = biological target: IL-13Rα1 + IL-4R co-immobilised on one sensor chip surface (high affinity receptor) (human) (UniProt P78552); assay: SPR, IL-13Rα1 and IL-4R co-immobilised, heterogeneous ligand model, component 2 (high affinity)
# [11] = biological target: IL-13Rα1 + IL-4R co-immobilised on one sensor chip surface (high affinity receptor) (human) (UniProt P78552); assay: SPR, IL-13Rα1 and IL-4R co-immobilised, heterogeneous ligand model, component 1 (lower affinity)
# [12] = biological target: IL-13Rα1 + IL-4R co-immobilised on one sensor chip surface (high affinity receptor) (human) (UniProt P78552); assay: SPR, IL-13Rα1 and IL-4R co-immobilised, heterogeneous ligand model, component 2 (high affinity); column head misprinted 'Kd 2 × 10^6'
# [13] = biological target: T1, Eu-IL-13 (europium chelate labeled IL-13) (human, UniProt P35225 35-146, limits assumed, europium chelate (Eu) label, directly labeled; site not stated); assay: TR-FRET assay 1, direct: Cy5-IL-13Rα1 titrated into 10 nM Eu-IL-13, no IL-4R
# T1 construct: also called Eu-labeled IL-13
# T1 sequence (P35225 other isoform, or with tags, fused parts or gaps limits assumed, form in doubt): as the sequence (P35225 35-146, one chain of several) above, with Q110R counted along it
# Procedure: (§1) All TR-FRET experiments were performed on a 384-well black plate (Corning Costar, Acton, Mass.) in 20 μL final volume of PBS plus 0.1% BSA. For example, excitation and emission conditions for TR-FRET assay 1 and 2 were 345 nm and 665 nm, respectively. All TR-FRET measurements were taken using an Envision plate reader (Perkin Elmer) using the TR-FRET mode.
# Binding between IL-13 and IL-13Rα¹ was analyzed using Eu-IL-13 (Eu=Europium chelate, FRET donor) and Cy5-IL-13Rα1 (Cy5=Cyanine dye, FRET acceptor) (schematic shown in FIG. 3) described in Example 5. Affinity measurements were performed by adding various concentrations of Cy5-IL-13Rα1 in the presence of 10 nM Eu-IL-13 with and without 500 nM IL-4R.
# [14] = biological target: T1, Eu-IL-13 (europium chelate labeled …); assay: TR-FRET assay 1, competition with 10 nM Cy5-IL-13Rα1 for 10 nM Eu-IL-13, no IL-4R
# Procedure: as §1
# (§2) Assays were performed as described in Example 5. Competition experiments were performed by adding various concentrations of unlabeled IL-13, IL-13R110Q, or IL-13Rα1 to the Eu-IL-13 (10 nM)/Cy5-IL-13Rα1 (10 nM) binary complex with or without IL-4R (500 nM).
# (§3) To confirm the dissociation constant of Cy5-IL-13Rα1, a competition experiment was performed using unlabeled IL-13Rα1.
# [15] = biological target: T2, Eu-IL-13 plus IL-4R (500 nM) in solution (human, UniProt P35225 35-146; P24394 26-232, limits assumed, europium chelate label; site not stated); assay: TR-FRET assay 1, competition with 10 nM Cy5-IL-13Rα1 for 10 nM Eu-IL-13, with 500 nM IL-4R
# T2 construct: The partners of IL-13Rα1 in the ternary format of TR-FRET assay 1
# T2 sequence (P35225 other isoform, or with tags, fused parts or gaps limits assumed, form in doubt, chain 1 of 2): as the sequence (P35225 35-146, one chain of several) above, with Q110R counted along it
# T2 sequence (P24394 26-232 limits assumed, form in doubt, chain 2 of 2): as the sequence (P24394 26-232) above
# Procedure: as §1, §2, §3
molecule,measurement,setting,value
soluble form of carrier-free human IL-4Rα monomer (R&D Systems) (from UniProt P24394 26-232) (receptor),Kd,[1],115 nM
same,koff,[1],0.0051 s⁻¹
same,kon,[1],44000 M⁻¹ s⁻¹
same,koff,[2],0.005 s⁻¹
IL-13R110Q (from UniProt P35225 35-146) (ligand),t½ (decay of binding),[3],50 s
same,Kd,[4],8.93 nM
same,koff,[4],0.015 s⁻¹
same,kon,[4],1.68e+06 M⁻¹ s⁻¹
same,fold lower Kd than to IL-13Rα1 alone,[5],17 fold
same,IC50,[6],27 nM
same,IC50,[7],12 nM
same,Kd,[8],6.7 nM
same,Kd,[9],0.3 nM
same,Kd,[10],0.53 nM
same,koff,[10],0.002 s⁻¹
same,Kd,[11],14.5 nM
same,koff,[11],0.018 s⁻¹
same,kon,[11],1.24e+06 M⁻¹ s⁻¹
same,kon,[12],3.77e+06 M⁻¹ s⁻¹
B1,EC50,[13],10 nM
B2,IC50,[14],20 nM
same,IC50,[15],11 nM
